T1: 35S-labelled transcription-translation product of p28 Bap31 cDNA
T1 chain: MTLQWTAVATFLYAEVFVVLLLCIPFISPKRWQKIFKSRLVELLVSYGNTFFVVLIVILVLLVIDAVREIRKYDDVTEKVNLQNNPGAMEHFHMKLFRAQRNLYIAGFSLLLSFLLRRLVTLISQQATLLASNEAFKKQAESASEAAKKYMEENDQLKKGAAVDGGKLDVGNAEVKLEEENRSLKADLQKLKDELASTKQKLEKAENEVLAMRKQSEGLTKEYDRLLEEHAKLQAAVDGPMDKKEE

B1: FLICE (caspase-8) (protein)
chain: SESQTLDKVYQMKSKPRGYCLIINNHNFAKAREKVPKLHSIRDRNGTHLDAGALTTTFEELHFEIKPHDDCTVEQIYEILKIYQLMDHSNMDCFICCILSHGDKGIIYGTDGQEAPIYELTSQFTGLKCPSLAGKPKVFFIQACQGDNYQKGIPVETDSEEQPYLEMDLSSPQTRYIPDEADFLLGMATVNNCVSYRNPAEGTWYIQSLCQSLRERCPRGDDILTILTEVNYEVSNKDDKKNMGKQMPQPTFTLRKKLVFPSD
B2: ICE (caspase-1) (protein)
chain: NPAMPTSSGSEGNVKLCSLEEAQRIWKQKSAEIYPIMDKSSRTRLALIICNEEFDSIPRRTGAEVDITGMTMLLQNLGYSVDVKKNLTASDMTTELEAFAHRPEHKTSDSTFLVFMSHGIREGICGKKHSEQVPDILQLNAIFNMLNTKNCPSLKDKPKVIIIQACRGDSPGVVWFKDSVGVSGNLSLPTTEEFEDDAIKKAHIEKDFIAFCSSTPDNVSWRHPTMGSVFIGRLIEHMQEYACSCDVEEIFRKVRFSFEQPDGRAQMPTTERVTLTRCFYLFPGH

Biological target: T1, 35S-labelled transcription-translation …

| Protein | amount of p20 cleavage product (Phosphorimager) | cleavage of 35S-labelled p28 Bap31 in vitro (SDS-PAGE) |
| --- | --- | --- |
| B1 | p28 Bap31 was more sensitive to cleavage by FLICE (caspase-8) than ICE (caspase-1) | – |
| B2 | – | ICE (caspase-1), on the other hand, generated two products (denoted “a” and “b”) whose apparent sizes in SDS gels (approximately 27 kDA and 20 kDa, respectively) |

— patent US6607880
